Patent US20230080534A1, “SEMG2 ANTIBODY AND USE THEREOF” (SHANGHAI BIOTROY BIOTECHNIQUE CO., LTD., priority 2020, published 2023)

Assays:
[1] = target: T1, binding between SEMG2 and CD27 (Homo sapiens, UniProt Q02383); assay: Antibody blocking ELISA of SEMG2 binding to CD27-Fc; details: antibody 10 μg/mL
T1 sequence (Q02383 24-582): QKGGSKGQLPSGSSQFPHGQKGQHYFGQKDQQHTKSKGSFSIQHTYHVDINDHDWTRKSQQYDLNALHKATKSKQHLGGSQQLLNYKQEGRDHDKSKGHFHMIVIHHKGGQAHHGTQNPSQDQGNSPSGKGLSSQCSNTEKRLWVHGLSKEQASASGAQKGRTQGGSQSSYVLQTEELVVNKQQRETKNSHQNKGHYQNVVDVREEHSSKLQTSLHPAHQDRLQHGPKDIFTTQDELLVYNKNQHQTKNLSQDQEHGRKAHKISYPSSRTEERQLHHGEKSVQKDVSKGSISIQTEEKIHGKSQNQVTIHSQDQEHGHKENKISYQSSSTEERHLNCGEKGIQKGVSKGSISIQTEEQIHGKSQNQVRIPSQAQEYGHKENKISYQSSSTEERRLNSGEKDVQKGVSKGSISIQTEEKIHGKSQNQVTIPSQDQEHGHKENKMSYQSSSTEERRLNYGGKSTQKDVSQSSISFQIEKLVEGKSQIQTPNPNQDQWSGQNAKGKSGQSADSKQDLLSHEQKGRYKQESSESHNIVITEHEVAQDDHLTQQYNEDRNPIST
Excerpt: Because SEMG2 (497-509) sequence fragment is the key epitope of SEMG2 binding to CD27, and has a relatively short sequence, so SEMG2 (497-509) was used as an immunogen to prepare antibodies, which is theoretically easier to obtain functional antibody molecules with the function of blocking the binding between SEMG2 and CD27 than using full-length SEMG2 to prepare antibodies. For direct comparison, the differences in effective concentration of producing antibody by the two methods were verified using ELISA in the examples. Antibodies produced with SEMG2 (497-509) as immunogen and antibodies produced with full-length SEMG2 were added into the enzyme-linked immunosorbent assay (ELISA) reaction system at different concentrations (10^-2, 10^-1, 10^0, 10^1, 10^2, 10^3, 10^4 μg/mL), and the ELISA binding values were measured. The specific steps of enzyme-linked immunosorbent assay are as follows: (1) Dissolve SEMG2 protein antigen with 50 mM carbonate coating buffer (pH 9.6) to make the antigen concentration 10 μg/mL, and add into 96-well ELISA plate (purchased from Corning) at 100 μL/well, place at 4° C. overnight. (2) After discarding the coating solution on the next day, wash with PBST for three times, add 150 μL of 1% BSA to each well, and block for 2 hours at 37° C. […] (4) After washing for 5 times with PBST, add 100 of diluted HRP-labeled anti-human Fe secondary antibody, and incubate at 37° C. for 1 hour. (5) After washing with PBST for 5 times, 20 min after developing with chromogenic agent, the A450 absorption value was read using the microplate reader.
The SEMG2 (497-509) sequence was used to synthesize a polypeptide and coupled to a VLP carrier for immunization; HEK293 cells were used to express the full-length SEMG2 protein, and the purity was tested to reach 92%, and the binding activity of SEMG2 protein to CD27 was verified by ELISA. The protein and polypeptide antigens were used to immunize 10 mice respectively, and multiple immunizations were performed to enhance the effect: (1) The first immunization, 50 μg/mice of antigen, multiple subcutaneous injections together with Freund's complete adjuvant, with an interval of 3 weeks; (2) the second immunization; the same dosage and route as above, with incomplete Freund's adjuvant, and with an interval of 3 weeks; (3) the third immunization, the same dosage as above, without adjuvant, intraperitoneal injection with an interval of 3 weeks; (4) the booster immunization, the dose is 50 μg, intraperitoneal injection. 3 days after the last injection, blood was collected to measure its titer and the immune effect, and mice with higher titers were selected for hybridoma fusion screening. After subcloning, the binding of the monoclonal antibodies to the target antigens was detected by ELISA, and the function of different monoclonal antibodies in blocking the binding between SEMG2 and CD27 was measured by ELISA.
First, SEMG2(497-509) epitope-specific antibodies (for example, MM02, MM05) were compared with other epitope-specific antibodies (for example, HPA042767) for their function in blocking binding between SEMG2 and CD27 at different concentration ranges. […] The blocking function of different antibodies (irrelative mouse IgG, MM02, MM05, HPA042767) on binding between SEMG2 and CD27 was analyzed by the ELISA experiment as described in Example 11.
Further, the effects of different antibodies on the binding between SEMG2 and CD27 were compared under the condition of the same antibody concentration. In the ELISA, the same concentration (10 μg/mL) of antibody was used, and the strength of the binding between SEMG2 and CD27 was measured. […]

SEMG2(497-509) fragment = target: T2, SEMG2(497-509) fragment (Homo sapiens, UniProt Q02383); assay: ELISA binding of antibodies to SEMG2(497-509) epitope
T2 construct: SEMG2(497-509) fragment and SEMG2(563-574) fragment were immobilized on the ELISA plate; made in house; host or cells: chemical synthesis
Experimental: Specifically, SEMG2 full-length protein (1-582), SEMG2(354-403) fragment, SEMG2(442-453) fragment, SEMG2(497-509) fragment and SEMG2(563-574) fragment were immobilized on the ELISA plate, and the same concentration of antibodies (MM02, MM05, MM07, MM08, MM13, MM14, HPA042767 and HPA042835) were added. Anti-mouse or anti-rabbit secondary antibodies were then used to detect the corresponding bound antibodies. MM02, MM05, MM07, MM08, MM13, and MM14 all bound to SEMG2(497509) epitope, HPA042767 bound to SEMG2 (354-403) epitope, and HPA042835 bound to […], while none of the antibodies bound to SEMG2 (442-453) control fragment.
Specifically, the preparation of polypeptide antigens and the screening of human natural antibody library were firstly performed. The SEMG2(497-509) polypeptide was synthesized and coupled to BSA and KLH, respectively, and screened in a fully human phage display antibody library. ELISA was used to select clones that bind to antigenic epitopes for preliminary screening. Different unique sequences were obtained after sequencing single colonies, sorted according to affinity sorting, and full-length antibodies were constructed from antigen-binding fragments (Fab) with relatively high affinity. The binding ability and blocking function tests were performed after purification, that is, the effect of the antibody on binding between SEMG2 and CD27 was determined by the ELISA experiment.

[2] = test system: A375 human melanoma cells; assay: Tumor cell killing by activated PBMC, caspase-3/7 apoptosis; format: cell-based; details: A375, SEMG2-positive, co-culture with activated PBMC 10:1
Experimental: (§1) To test the above hypothesis, the effects of different epitope-specific antibodies on tumor cell killing by activated PBMC were compared. Specifically, A375 human melanoma and LOVO human colorectal cancer cells highly expressing SEMG2 were seeded in 96-well plate. Human peripheral blood mononuclear cells (PBMC; #70025, Stem Cell) were activated with 100 ng/mL of CD3 antibody, 100 ng/mL, of CD28 antibody, and 1.0 ng/mL of IL2 (#317303; #302913; #589102, BioLegend), respectively, and co-cultured with the above tumor cells at a ratio of 10:1 in presence of fluorescent caspase-3/7 substrate (#4440, Essen Bioscience). After 1.0 hours, cells were observed under fluorescence microscope.
(§2) To verify the above hypothesis, tumor cells with high SEMG2 expression (A375, LOVO) and SEMG2-negative tumor cells (DLD1, NCM460 and NCI-H1975) were selected. Different antibodies (irrelevant mouse IgG antibodies, MM02 or MM05 antibodies) were added during the PBMC killing experiments for the tumor cells.
(§3) To verify the effect of the human antibodies on the function of activated PBMC on tumor cell killing, A375 and LOVO cells were co-cultured with activated PBMC, and H88-93, H88-96, or H88-67 antibody was added at the same time, and the apoptosis ratio of tumor cells were detected.

[3] = test system: LOVO human colorectal cancer cells; assay: as above; format: cell-based; details: SEMG2-positive, co-culture with activated PBMC 10:1
Experimental: as §1, §2, §3

B1: MM14: mouse monoclonal antibody against SEMG2(497-509), mIgG2b kappa, VH SEQ ID NO:40, VL SEQ ID NO:47 (antibody, V domains shown)
VH: QVQLKESGPGLVAPSQSLSITCTVSGFSLTSYAVSWVRQPPGKGLEWLGIIWGDGSTNYHSALISRLSISKDNSKSQVFLKLNSLQTDDTATYYCAKQERFSDGYYDGFAYWGQGTLVTVSA
VL: QIVLTQSPAIMSASPGEKVTITCSASSSVSYMHWFQQKPGTSPKLWIYSTSNLASGVPARFSGSGSGTSYSLTISRMEAEDAATYYCQQRSSYPFTFGSGTKLEIKRA
modifications: UNSURE (1)..(122) VH; UNSURE (1)..(108) VL
effect on the binding between SEMG2 and CD27 [1]: significantly reduced the binding
binding to SEMG2(497-509) epitope (SEMG2(497-509) fragment): bound
apoptosis tumor cell ratio / killing by activated PBMC [2]: significantly increased
apoptosis tumor cell ratio / killing by activated PBMC [3]: significantly increased

B2: H88-96: fully human antibody from phage library against SEMG2(497-509), VH SEQ ID NO:54, VL SEQ ID NO:57 (antibody, V domains shown)
VH: QVQLLESGGGLVQPGGSLRLSCSASGFTFSSYAMHWVRQAPGKGLEYVSAISSNGGSTYYADSVKGRFTISRDNSKNTLYLQMSSLRAEDTAVYYCVIEGGSTTGTTSGAFDIWGQGTMVTVSS
VL: DIQMIQSPPSVSASVGDTVTIACRANQGIDSWLAWYQQKPGRAPKLLIYSASRLQSGVPSRFSGGGSGTDFALTISNLQPEDFATYYCQQALSLPITFGQGTRLEIK
modifications: UNSURE (1)..(124) VH; UNSURE (1)..(107) VL
effect on the binding between SEMG2 and CD27 [1]: inhibited the binding
binding to SEMG2(497-509) epitope (SEMG2(497-509) fragment): bind
apoptosis tumor cell ratio / killing by activated PBMC [2]: significantly promote the killing
apoptosis tumor cell ratio / killing by activated PBMC [3]: significantly promote the killing

B3: MM08: mouse monoclonal antibody against SEMG2(497-509), mIgG1 kappa, VH SEQ ID NO:38, VL SEQ ID NO:45 (antibody, V domains shown)
VH: QVQLQQPGAELVRPGASVKLSCKSSDYTFTRYWMNWVKQRPGQGLEWIGMIDPSDSETHHNQMFKDKATLTVDKSSSTAYMQLSSLTSEDSAVYFCARYLGGKEGSFDYWGQGTTLTVSS
VL: DIVLTQSPSSLAVSAGERVTMSCKSSQSLFNSRTRKNYLAWYQQKPGQSPKLLLYWASTRESGVPDRFTGSGSGTDFTLTISSVKTEDLAVYYCKQSYELPWTFGGGTKLEMKRA
modifications: UNSURE (1)..(120) VH; UNSURE (1)..(115) VL
effect on the binding between SEMG2 and CD27 [1]: significantly reduced the binding
binding to SEMG2(497-509) epitope (SEMG2(497-509) fragment): bound
apoptosis tumor cell ratio / killing by activated PBMC [2]: significantly increased
apoptosis tumor cell ratio / killing by activated PBMC [3]: significantly increased

B4: MM07: mouse monoclonal antibody against SEMG2(497-509), mIgG2b kappa, VH SEQ ID NO:37, VL SEQ ID NO:44 (antibody, V domains shown)
VH: MDWLWTLLFLMAAAQSIQAQIQLVQSGPELKKPGETVRISCKASGYTLTTAGMQWVQKIPGKGLKWIGWINTHSGVAEFAEDFKGRFAFSLETSANTAYLQIRNLKNEDTATYFCARLGLLGYWGQGTTLTVSS
VL: MVSSAQFLVFLLFWIPASRGDILLTQSPAILSVSPGERVSFSCRASQSIGTTIHWYQQRTNGSPRLLIKYASESISGIPSRFSGSGSGTDFTLSINSVESEDIADYYCQQSNSWPWTFGGGTKLEIKRA
modifications: UNSURE (1)..(134) VH; UNSURE (1)..(129) VL
effect on the binding between SEMG2 and CD27 [1]: significantly reduced the binding
binding to SEMG2(497-509) epitope (SEMG2(497-509) fragment): bound
apoptosis tumor cell ratio / killing by activated PBMC [2]: significantly increased
apoptosis tumor cell ratio / killing by activated PBMC [3]: significantly increased
